The data set addresses mouse IgG1 (subtype 1 IgG antibody) (Mus musculus) (UniProt P01868). Put plainly: SPR. The settings on record: RNA with 5'-dA5 (1-5).

In the case of “AAAAACGCUGAAGAGAAGACGGAAGGAGACGAAGCGT [MIG-m034]”, the Kd is below 0.001 nM (LNA at C6 G7 C35 G36, 3'-dT37, BIACORE 3000, 1:1 Langmuir) and 0.634 nM (LNA at C6 G7 C35 G36, 3'-dT37, second measurement (Example 3), differs from Table 2).

“AAAAACGCUGAAGAGAAGACGGAAGGAGACGAAGCGT [MIG-m042]” showed a Kd (LNA at C6 G7 C35 G36, 2'-OMe U9, 3'-dT37, BIACORE 3000, 1:1 Langmuir) below 0.001 nM.

For the sequence “AAAAAGCGCUGAAGAGAAGACGGAAGGAGACGAAGCGC [MIG-m036]”, for the setting “DNA at G6 C7 G37 C38, BIACORE 3000, 1:1 Langmuir”, the dissociation constant Kd amounted to 5.48 nM.

With “AAAAAGCGCUGAAGAGAAGACGGAAGGAGACGAAGCGC [MIG-m037]”, for the setting “DNA at 6-9 and 35-38, BIACORE 3000, 1:1 Langmuir”, the Kd stood at 1.7 nM.

The sequence “AAAAAGCGCUGAAGAGAAGACGGAAGGAGACGAAGCGC [MIG-m040]” registered a Kd (2'-OMe U10, BIACORE 3000, 1:1 Langmuir) of 0.411 nM.

As to “AAAAAGCGCUGAAGAGAAGACGGAAGGAGACGAAGCGC [MIG-m041]”, the Kd (DNA at 6-9 and 35-38, 2'-OMe U10, BIACORE 3000, 1:1 Langmuir) was below 0.001 nM.

“AAAAAGCUGAAGAGAAGACGGAAGGAGACGAAGCT [MIG-m035]” gave a Kd (LNA at G6 C7 G33 C34, 3'-dT35, BIACORE 3000, 1:1 Langmuir) below 0.001 nM.

The record behind these values is patent US8852954.
